Results reported in paper doi:10.1101/2022.09.05.506711, “New structures of Class II Fructose-1,6-Bisphosphatase from Francisella tularensis suggest a novel catalytic mechanism for the entire Class” (bioRxiv, 2022).

Molecular target: the molecule itself
Experiment: crystal structure

B1: Mycobacterium tuberculosis class II fructose-1,6-bisphosphatase (enzyme)
chain: MELVRVTEAGAMAAGRWVGRGDKEGGDGAAVDAMRELVNSVSMRGVVVIGEGEKDHAPMLYNGEEVGNGDGPECDFAVDPIDGTTLMSKGMTNAISVLAVADRGTMFDPSAVFYMNKIAVGPDAAHVLDITAPISENIRAVAKVKDLSVRDMTVCILDRPRHAQLIHDVRATGARIRLITDGDVAGAISACRPHSGTDLLAGIGGTPEGIIAAAAIRCMGGAIQAQLAPRDDAERRKALEAGYDLNQVLTTEDLVSGENVFFCATGVTDGDLLKGVRYYPGGCTTHSIVMRSKSGTVRMIEAYHRLSKLNEYSAIDFTGDSSAVYPLP
notes: also called MtFBPaseII; MtFBPase
- stoichiometry N: 4
